18 sequences from the DeepSol protein solubility set can be followed below.

A short description of the data set: soluble on expression in E. coli; label from the status in PepcDB or PDB records.
“MSLTEPEDPSRERLKHHFAQRVIHQARQILEIWQRLQRSEWSTTDMSELCEANLRLLRFAERFEQPEHTQLARSISQSLEAVDANRGRLSSNLITDLNRLMQRLSRTGLRHGDQLEQTFLPPLRKPIYVMLQDHDRAERLAKQLEFFGLSAQSLDSIPAFRSSMVERLPAAIVIDVDFCGAGMGLTLAAEAQVGLEQKLPLLFFSLHETDTPTRLAAVRAGGQEFLTGTLEASSLLEKIEVLTCVAQYEPYKVLIIDDSRAQALHTERLLNSAGIVTRTLIEPIQAMAELADFQPDLIILDMYMPACTGTELAKVIRHNDRYVSVPIIYLSAEDDLDKQLDAMSEGGDDFLTKPIKPRHLITTVRNRAARARNLKARMVRDSLTGEGHHHHHH”: the “soluble on expression in E. coli” value was “not soluble”. Under “MGSDKIHHHHHHMSKIKVALLVDEYFGGAKTKYGGYGFLARHLVAKHLPDDQVDVDVLLKKDCGKVRLWPKCFMVDGIRVYKLAARAFDWVNNLFLRQKNYDVFLSIEMTTHSYRIFSKAPGKNKKLLFWIQDPRPTYEWDEIQTVKLFPEPSYWDAEIYDFVNQYARSGNVRFISQAKCLDQKARDLYRLPANTSINYLPNPIEIDETFDLDSFPKQNSIIFLGRIESVKRGWLFAEIAKAMPQCQFYMLGQAHRQADENNAVMSGYQAIPNLHFVGHVEGEQKNRFLKEAKVLVNTSIHEALPISFLEALSYGTLLVSCQNPDELASKFGVYTGKVLGDGFDKVELFVAGINQLLTNDDHRHQLAKDAIAYIKEVHSLSRFTGDIKHELLTLCASRNEPVKATGRTTTSTVQ” stands “not soluble”; under “MSHPRYKSLLNRDRIVEAFESGVLAKGGMIAHGRGETFDYLIGESTTDAALNSIKVSAALLVLAENPVISVNGNSVALAKDEFVELAKELNGKIEVNLFYRTTEREEKIKDVFESDINGGIVLLGIDNADKQIPGIDHLRGKVSESGIYTSDVVLVPLEDGDRAEALVKMGKTVIAIDLNPLSRTARKSTISIIDELTRCIPLITEYVREYKKMDRAELLKIVENYDNEENLRNILNLISKRLTSVDLEHHHHHH”, “not soluble”. Turning to “MGNLICTKNGGEPEIMVAAHMDEIGFAVKYIDDKGFIRIAPIGGWFSQIALAQRVVLYGKKKVYGVIGCKPPHLMKDEERKKGIEIKDMFVDIGASSKEEVLEMGINVGTPVALDREIVELANGRITGKAFDNRVGVAVMIEAVRRAKADITIHAVATVQEEVGLKGARTSAFAIEPTAAIAVDTCVAADFPGSESAHMDVKLGKGAAITVIDASGRGLIASPKVLRWLTETAEKYGIPYQLEVAEGGTTDATAIHLTKAGIPAGVVSVPARYIHSPVEVVDLKDVESAVEIVARAIENAKNYF”, the “soluble on expression in E. coli” value is reported as “soluble”. For “SNAMKDVLAEYASRIVSAEEAVKHIKNGERVALSHAAGVPQSCVDALVQQADLFQNVEIYHMLCLGEGKYMAPEMAPHFRHITNFVGGNSRKAVEENRADFIPVFFYEVPSMIRKDILHIDVAIVQLSMPDENGYCSFGVSCDYSKPAAESAHLVIGEINRQMPYVHGDNLIHISKLDYIVMADYPIYSLAKPKIGEVEEAIGRNCAELIEDGATLQLGIGAIPDAALLFLKDKKDLGIHTEMFSDGVVELVRSGVITGKKKTLHPGKMVATFLMGSEDVYHFIDKNPDVELYPVDYVNDPRVIAQNDNMVSINSCIEIDLMGQVVSECIGSKQFSGTGGQVDYVRGAAWSKNGKSIMAIPSTAKNGTASRIVPIIAEGAAVTTLRNEVDYVVTEYGIAQLKGKSLRQRAEALIAIAHPDFREELTKHLRKRFG”, the “soluble on expression in E. coli” value is given as “soluble”. Then “MSLNASPQEDAGPEPVVYLVDDQQAELDLLQRWCSQEGLKTETFNQAEDLLKLLHADSHGCVVADLRMPRLSGLELQAEMSRRELTIPVILVTGHGDAENCRAAFQQGVFDFIEKGFRHEEILHAINSAIRKHRRDRFRHQVRKEALDLLRKISPRETEVMLLLAGGSPLKGIAQELSISVQTASKHRGSIFTKLNIDNEVDLYKMLLAAEVNLDVGEGHHHHHH”, with “soluble”; and “MGSDKIHHHHHHMINQVYQLVSPRQFEATFKTIDLHNHNSKVIVRPLYLSICAADLRYYCGNRDSKILSKKLPMSLIHESVGEIVYDSEHRLKNGTKVVMIPNTPSKSHNIIAENYLTSSHFKSSGYDGFMQDYIVMKPDRVVTLPQEIDLSVASYTELVTVSVHAIDRFQSKAIPQFESLGIWGDGNLGYITAVLLKKLYPTTKIIVFGKTLYKLSRFSFVDEIIQIDNIPQHIKIDHAFECVGGKGSQQAIEQIINIINPEGSIALLGVSELPIQVNTRMVLEKGLTIIGSSRSGLKDFEKTIELYRKYPEVLNQLALLKGKEFEINTIEDLITAFEYDISNAWGKTVLKWNI”, with “not soluble”; and “MQGFELEDLTLWLIRDAGEDQMWIDRWAISYPVVQMSEASAGQSIGEWQAGLQTAFERIRGKYVAVVAHGAGAAAFLAWLYQADILTRKKIANIILVPQRPDIFPDDAEHAFQRVRCPCRAALVVPEHGGVPHGWAQKQADLWNARLLVSPHSGSLNGMLGGWQWGMKLMQEMLLA”, with “not soluble”. For “VVELPKTDEGLGFNIMGGKEQNSPIYISRVIPGGVADRHGGLKRGDQLLSVNGVSVEGEQHEKAVELLKAAQGSVKLVVR”, the “soluble on expression in E. coli” value was “soluble”. Then “MAHHHHHHMDKYTKVKNIGKGNMGTCTLARNNEDGKYYVIKQVDLTRMSKKDRQQSLNEARVLSSLRHPNIINYVDSFLARKSDNLCIVMEYAESGDVCTRLKKHYGVNVPERQVVDWLIQLVLSLDYVHQRKILHRDVKTQNIFLTHENLIKLGDFGIARTLANTYDQAQTFVGTPYYLSPELILEQPYDHRSDVWALGVVLYEMLTLKHPFNAKDMKGLLQRILAVHYDPLPTMYSAELRDIVARMLVRDPAGRIKLDEILQIPIVRERIRQWLKEPDVVPQHYVRSLCKHHLLPDFQDEATAMPSTRSAARAAAAMAHEEWRTTSEATSAQTDGDVCARKDTDTRPHVTLGGPFSIPSTAARTAAAVCTSSADEESSDGVRPSIPPLKPYSNLPQLGMASPQLYTPQLPQMHPRVQSNNRASSPSRLFRSPFSTPSVARSAALPISRQQGDPVSQSSPAPLPLQRPIARAKAPTRPYARPYVAQPHLSPSPGYLFAANPRKNPIDARRQQSSRPSGPYLNPLFAAPRQMAPAYRSLVPPLPPPPDIKAMLQRAAAERARR”, with “not soluble”; and “MGSDKIHHHHHHMRKVGMTTTIPVEVVYAAGLIPVDLNNIFVTHENPQSLVEEAEMAGYPRNLCAWIKGLYSTILQNDDIQTLIAVTQGDCSNTHALMETLEMAGVNVIPFAFPFDRDYDLLKLQMEKLINTLGTTWDEVYHAKKRLDAIRSKVHELDRLTWQGDRVRGWDNHLYQVCCSDLEGDPEDFGRRVDQYLAELPAKEPIKAKVRLAYIGVPPIMDDLYDYVEERGARVVFNEVQRQFTMPFATDDIVEQYRIYSYPYGIFYRLQDISRELEQRQVDGVIHYAQSFCYRQIEDLIVRQKLKYPILTLEGDKPNKLDARTRMRLDAFLDMLR”, with “not soluble”. Under “MAKSRTIYVCAECGGTSLKWQGKCPHCSAWNTLEETVESAAPSAGGHRYAPLAAASPVRSLSEIEARETPRQPTGLDEFDRVLGGGLVAGAVVLIGGDPGIGKSTLLLQALASLSATTKVLYVTGEESAEQVALRARRLGLQTGNVDLLAEIRLEAIQAAVSEQKPTVAVIDSIQTLYSGELTAAPGSVSQVRECAAQLTRLAKQTGIAIVMIGHVTKDGALAGPRVLEHIVDTVLYFEGDTHSSFRLVRAFKNRFGAVNELGVFAMTDRGLRGVANPSALFLSQHQQQVAGSCVLATQEGTRPLLVEVQALVDTSHAPNPRRLTVGLEGNRLAMLLAVMHRHAGVSTYDQDVFVNAVGGVRITEPAADLPVLLAIMSSLRDKPLPAGLVAFGEIGLAGEIRPAPRGQERLREAAKLGFSVALIPKANAPRQPIEGLEIWAVDRLDAALDKLRLEHHHHHH” stands “soluble”; under “MDLWLLANDESCLRHQAFWHSWQGPLVERQQSNNITLTDVLEGVHAYLQGHLDDFEIQEAFVTKELPLKLAQLRERWERYVVLNAELAARGRGGFERNRRDD”, “soluble”; under “MGSDKIHHHHHHMNIFQQLEHSKAPAAVRLVMVIDYIAKRDEASFTEICTDLSIPKSSVHHLLEVLVVTQLLRQRADGRYVLGLRLFELGGLVIKNIDLRKDTINFMHELVKETELTCHLGIMDGDNGFFLSKVESPKAIVKTSWEGKKIVFNRMSLGKVLVAWLPQERIESLIADCSFEYLTPRTITNKDDFLQHLKTVKEQGWAIDDGEDIEEICCMAAPIFNQNGDVIAAIGVNGMQSQYANGKKEKHLASLIKTSKAITAHINSRNIDIR”, “not soluble”.

For “MGSDKIHHHHHHMLKPDRLRALAEALTRQNVMRLRDAAGLLGVSEMTVRRDIAGSPERFTYLGGYIVSATDVPNNAGYSLEEEKDHFAQAKAEASAVAAGLIGNNETLFIDCGTTLTTLARLIPLERHVTVVCYSLNVAEILRRKPNVRMILLGGVYVPSSDSFAGEESLEMLRRMGINKAFISAGGVDTARGVTCWNFHEVALKQAAMASAVERHLVVDQSKFGVVKAVRFSQVDDFDSIITEKGQQLRKRR”, the “soluble on expression in E. coli” value is reported as “not soluble”.

For the sequence “MGSDKIHHHHHHMKILVYGINYSPELTGIGKYTGEMVAWMAQEGHEVRVITAPPYYPQWKVGERYSAWRYRREEGEATVWRCPLYVPKQPSTLKRLLHLGSFALSSFFPLMAQRRWKPDRIIGVVPTLFCTPGMRLLATLSGARTVLHIQDYEVDAMLGLGMAGKGKRGSVARLATAFERSALRNVDNVSTISRSMMNKAREKGVAAEKILFFPNWSEVARFQDVNDADVTALRQQLGLPEGKKIVLYSGNIGEKQGLEKVIDAAERLRDRPLIFAIVGQGGGKARLENMARERGLANIKFLPLQPYDALPALLKMGDCHLVVQKRGAADAVLPSKLTNILAVGGNAVITAEPHTELGQLCARYPGIAVCVEPESTDALVNGISQALAMPKNNTTAREYAERTLNKENVLRQFIADIRG”, the “soluble on expression in E. coli” value is “not soluble”. “MGSDKIHHHHHHMKIGILTFHDAHNYGAMLQCYALQQFLFKKGYNVEVIDYRPAFYQKQYHRHSLCPWIGKNPVRTMKSIYYNYYLFNKRCAAFSDFHNRHLYMSIPATRTNIPQSYDAYIVGSDQIWNPQLTNGFHDVYFCDFCFPKGKSRFIAYAPSMEISRLSTQEAEYLTRVLNCFDALSVRESSLIPILQPLVSQPIQQVLDPTLLLDATAWNPLIGKCPKNRPYVVLYQVRENPAVRMKAFEIAQSIGGIVVELTARIDCHYSTKYQTASPADFVTYIRYATYVVTTSFHGTAFSLIFNRPFYTFSLGDNFDSRSASLLESVNLTERLVCPDEQFEISLIDFKQANKRLKHLRKQSCDFLRQSLHERQEQ”: the “soluble on expression in E. coli” value was “not soluble”.

Take “MKLVIDAGHGGYDSGAVGNGLVEKNLTLQIARRVRDILTVNYPITIKMTRDSDVFISLSERANIANAFSADYFISFHINSGGGTGFESYIYNALSNSSTAYAKQQKMHTAVNPVLTKYGLRDRGAKKENYAVLRETAMDAILTETAFIDTAFDANLLKNPQFIEDLSQAYANGIAAIFGVAPNPQPPNPQPVPQTKGIAYVLGKNVNLRNGPSTSSSVIRQLNSPESYVVYQESNGWLDLGNGQWVYNDSSYINFVKTSNSDGSPIGVAYIQGMNVNLRSGPSTTSAVIRQLNSPESYLVYINENGWLNLGGNQWVYNDPAYIKYTQY”: the “soluble on expression in E. coli” value is listed as “not soluble”.
